PMC4822050, “Hemi-methylated DNA opens a closed conformation of UHRF1 to facilitate its histone recognition” (Nature Communications, 2016)

Key:
FAM-20bp-HM-DNA = experiment: Fluorescence polarization, 20-bp FAM-hm-DNA; assay type: binding; conditions: FP, DNA length series
Method: (§1) FP measurements were performed at 25 °C on Synergy 4 Microplate Reader (BioTek). The 16-bp and 20-bp FAM-labelled hm-DNA (lower strand: 5′-GTGTCAGXGCATGGCC-3′ and 5′-CCGTGTCAGXGCATGGCCAT-3′, respectively. X=5-methyldeoxycytosine) were used in the FP experiment to test the effect of DNA length on the protein/DNA interaction. All experiments were performed in triplicate. The curves were fitted by GraphPad Prism 5. For salt concentration-dependent FP experiments, the reaction buffer contains 50 mM or 150 mM NaCl, respectively.

FAM-12bp-HM-DNA = experiment: Fluorescence polarization, 12-bp FAM-hm-DNA; assay type: binding; conditions: for Kd: FP
Method: A 6-carboxy-fluorescein (FAM)-labelled primer, 5′-CCATGCGCTGAC-3′, was annealed to a primer 5′-GTCAGXGCATGG-3′ (X=5-methyldeoxycytosine). The hemi-methylated double-strand DNA was used in both electrophoretic mobility-shift assay and FP assays. […] The samples were subjected to a 10% polyacrylamide gel electrophoresis and run in 0.5 × Tris-borate-EDTA buffer at 100 V for 1 h at 4 °C. The results were visualized on Tanon-5200 Chemiluminescent Imaging System (Tanon Science & Technology Co., Ltd).
as §1

RFTS^DNMT1 = experiment: ITC, RFTS of DNMT1 with SRA or SRA-Spacer; assay type: binding; conditions: 18 °C, RFTS^DNMT1 with named protein, 10 mM HEPES pH 8.0, 100 mM NaCl
Method: (§2) For competition ITC experiments: the indicated proteins were pre-incubated with competitive peptide, protein or hm-DNA (at 1:2 molar ratio if not specified) for 10 min followed by ITC measurements as described above. Proteins, DNA and peptides were prepared within ITC buffer containing 10 mM HEPES, pH 8.0, 100 mM NaCl. The data were fitted by software Origin 7.0. All ITC results were summarized in Supplementary Table 2 and raw data were shown in Supplementary Fig. 9.

[1] = molecular target: T1, TTD (residues 134–285) of UHRF1 (Homo sapiens, UniProt Q96T88); experiment: ITC, TTD titrated into Spacer variants and other UHRF1 fragments; assay type: binding; conditions: TTD in syringe
T1 construct: TTD (residues 134–285); GST (N, cleaved yes); made in house; host or cells: E. coli BL21 (DE3)
T1 sequence (Q96T88 134-285): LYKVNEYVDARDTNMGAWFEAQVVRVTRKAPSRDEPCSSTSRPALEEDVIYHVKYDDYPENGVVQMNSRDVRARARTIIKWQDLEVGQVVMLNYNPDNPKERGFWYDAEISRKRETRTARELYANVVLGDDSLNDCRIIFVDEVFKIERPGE
Method: as §2

hm-DNA (12 bp) = experiment: ITC, hm-DNA titrated into UHRF1 domains; assay type: binding; conditions: 18 °C, 12-bp hm-DNA in syringe, named protein in cell, 10 mM HEPES pH 8.0, 100 mM NaCl
Method: as §2

FAM-16bp-HM-DNA = experiment: Fluorescence polarization, 16-bp FAM-hm-DNA; assay type: binding; conditions: FP, DNA length series
Method: as §1

H3K9me3 peptide (1–17) = experiment: ITC, H3K9me3 peptide (1-17) titrated into UHRF1 proteins; assay type: binding; conditions: ITC KD ratio
Method: as §2

[2] = tested on: DAPI foci (pericentromeric heterochromatin) in NIH3T3 cells; experiment: Subcellular localization of GFP-tagged UHRF1 in NIH3T3 cells; assay type: cell-based; conditions: GFP-tagged protein transiently overexpressed in NIH3T3 cells, 36 h after transfection; at least 100 cells counted; repeated three times
Method: NIH3T3 cells were obtained from the Shanghai Institute of Biochemistry and Cell Biology. Wild type and mutants of UHRF1 were sub-cloned into pEGFP-C1 vector. Transient transfections of NIH3T3 cells were carried out using Lipofectamine 2000 (Invitrogen). The NIH3T3 cells were grown on glass coverslips and harvested in 36 h after transfection. The images were acquired and examined as previously described. Briefly, cells were fixed with 4% paraformaldehyde for 25 min, then washed with PBS three times. Coverslips were mounted with Antifade reagent containing DAPI (Molecular Probes) on slides and examined with a confocal microscopy.

[3] = 25 °C, 20 min, 20 mM HEPES pH 7.5, 175 mM NaCl, 8% glycerol, 1 mM DTT, triplicate, Fig. 5b and Supplementary Table 4

Molecule	Kd (FAM-20bp-HM-DNA) [nM]	Kd (FAM-12bp-HM-DNA; 12-bp hm-DNA, 50 mM NaCl) [nM]	Kd (FAM-12bp-HM-DNA; 12-bp hm-DNA, 150 mM NaCl) [nM]	Kd (FAM-12bp-HM-DNA; [3]) [nM]	Kd (FAM-12bp-HM-DNA; DNA length series, Supplementary Table 5, 12-bp hm-DNA) [nM]	Kd (FAM-12bp-HM-DNA; values as printed in Fig. 5c (Spacer truncation mapping)) [nM]	Kd (RFTS^DNMT1) [nM]	N ([1]; ITC stoichiometry)	ΔH ([1]; ITC) [cal/mol]	ΔS ([1]; ITC) [cal/mol/deg]	Kd (hm-DNA (12 bp)) [nM]	Kd (FAM-16bp-HM-DNA) [nM]	factor of decrease in hm-DNA-binding affinity compared with full-length UHRF1 (FAM-12bp-HM-DNA; FP KD ratio)	fold higher binding affinity to H3K9me3 peptide than full-length UHRF1 (H3K9me3 peptide (1–17))	percentage of cells showing co-localization with DAPI foci [2] [%]
SRA–Spacer: human UHRF1 residues 414–674 (protein, left off: GST, end not stated, cleaved) PSNHYGPIPGIPVGTMWRFRVQVSESGVHRPHVAGIHGRSNDGAYSLVLAGGYEDDVDHGNFFTYTGSGGRDLSGNKRTAEQSCDQKLTNTNRALALNCFAPINDQEGAEAKDWRSGKPVRVVRNVKGGKNSKYAPAEGNRYDGIYKVVKYWPEKGKSGFLVWRYLLRRDDDEPGPWTKEGKDRIKKLGLTMQYPEGYLEALANREREKENSKREEEEQQEGGFASPRTGKGKWKRKSAGGGPSRAGSPRRTSKKTKVEPY	400 ± 70	24 ± 3.7	580 ± 98	490	340 ± 90	490	7090	0.788±0.0108	-1.199E4±224.9	-13.3	1750	390 ± 70	–	–	–
UHRF1∆627-674: spacer deletion mutant of UHRF1 (residues 627–674 deleted) (protein, left off: GST, end not stated, cleaved) MWIQVRTMDGRQTHTVDSLSRLTKVEELRRKIQELFHVEPGLQRLFYRGKQMEDGHTLFDYEVRLNDTIQLLVRQSLVLPHSTKERDSELSDTDSGCCLGQSESDKSSTHGEAAAETDSRPADEDMWDETELGLYKVNEYVDARDTNMGAWFEAQVVRVTRKAPSRDEPCSSTSRPALEEDVIYHVKYDDYPENGVVQMNSRDVRARARTIIKWQDLEVGQVVMLNYNPDNPKERGFWYDAEISRKRETRTARELYANVVLGDDSLNDCRIIFVDEVFKIERPGEGSPMVDNPMRRKSGPSCKHCKDDVNRLCRVCACHLCGGRQDPDKQLMCDECDMAFHIYCLDPPLSSVPSEDEWYCPECRNDASEVVLAGERLRESKKKAKMASATSSSQRDWGKGMACVGRTKECTIVPSNHYGPIPGIPVGTMWRFRVQVSESGVHRPHVAGIHGRSNDGAYSLVLAGGYEDDVDHGNFFTYTGSGGRDLSGNKRTAEQSCDQKLTNTNRALALNCFAPINDQEGAEAKDWRSGKPVRVVRNVKGGKNSKYAPAEGNRYDGIYKVVKYWPEKGKSGFLVWRYLLRRDDDEPGPWTKEGKDRIKKLGLTMQYPEGYLEALANREREKENSKSLTAQQSSLIREDKSNAKLWNEVLASLKDRPASGSPFQLFLSKVEETFQCICCQELVFRPITTVCQHNVCKDCLDRSFRAQVFSCPACRYDLGRSYAMQVNQPLQTVLNQLFPGYGNGR	–	–	–	4940 ± 1090	–	–	–	–	–	–	–	–	14	four	22.1
